Source: publication doi:10.1101/2024.01.24.577129

Biological target: RGY-hIgG1-34-1-2S (mouse | human | not stated)
Experiment: negative stain electron microscopy; antibody in solution diluted to 0.01 mg/ml in 25 mM HEPES, 100 mM NaCl, on carbon-coated grids, 0.75% uranyl formate

B1: RGY-hIgG1-34-1-2S (antibody, V domains shown)
VH: EVQLQQSGAEFVRPGASVKLSCTASGFNLKDDYMFWVKQRPEQGLEWIGWIAPDNGDTEYASKFQGKATITADTSSNTAYVQLSSLTSEDTAVYYCTTWGYYSYVNYWGQGTTLTVSS
VL: DIQMTQSPSSLSASLGERVSLTCRASQDIGSNLNWLQQEPDGTIKRLIYATYSLDSGVPKRFSGSRSGSDYSLTISSLESEDFVDYYCLQYASSPYTFGGGTKLEIK
stoichiometry N: 6
